Measurements published in paper PMC10720262 (2023).
Changes are numbered by the printed parent chain.

B1: CL-509370 (antibody, V domains shown)
VH: QVQLVESGGGVVQPGRSLRLSCAASGFTFSSYGMHWVRQAPGKGLEWVAVIWYDGSNKFYADSVKGHFTISRDNSKNTLYLQMNSLRAEDTAVYYCARDGRDLRGTGPYFDPWGQGTLVTVSS
VL: EIVMTQSPATLSVSPGERAILSCRASQSVSSNLAWYQQKPGQAPRLLIYGASIRATGIPARFRGSGSGTEFTLTISILQSEDFAVYYCQQYNNWITFGQGTRLEIK
modifications: peptides N-terminally acetylated and C-terminally amidated
B2: CL-510514 (antibody, V domains shown)
VH: QVQLVESGGGVVQPGRSLRLSCTTSGFTFSNFGMHWVRQAPGKGLEWVALIWYDGSNKYYADSVKGRFTISRDNSKNTLYLQMNGLRAEDTAVYYCARDGGYYYGSGGAFDIWGQGTMVTVSS
VL: not shown
modifications: peptides N-terminally acetylated and C-terminally amidated
B3: CL-440582 (antibody, V domains shown)
VH: QVQLVESGGGVVQPGRSLRLSCAASGFTLNNYGIHWVRQAPGKGLEWLSLIWYDGSNKFYADSVKGRFTVSRDNSQNTVSLHMSSLSVDDTAVYYCARPGIGVPGDKYTMDVWGQGTTVTVSS
VL: DIQMTQSPSTLSASVGDRVTITCRASQTISAWLAWYQQKLGKAPKILIYKASILESGVPSRFSGSGSGTEFTLTINSLQPDDFATYYCQQYNYDWTFGQGTKVEIN
modifications: peptides N-terminally acetylated and C-terminally amidated
B4: CL-513041 (antibody, V domains shown)
VH: QEHLVESGGGVVQPGRSLRLSCAASGFTFSNSGMHWVRQAPGKGLEWVAVIWYDGSNKFYADSVRGRFTISRDNSNNTLYLQMNSLRAEDTALYYCARDRLFSGSWNWFDPWGQGTLVTVSS
VL: EIVLTQSPATLSLSPGERATLSCRASQSVSTYLAWYQQKPGQAPRLLIYDASNRATGIPARFSGSGSGTDFTLTISSLEPEDFAVYYCQQRSNWFTFGGGTKVEIK
modifications: peptides N-terminally acetylated and C-terminally amidated
B5: CL-531325 (antibody, V domains shown)
VH: QVHLVESGGGVVQPGKSLRLSCAASGFTFSNFGMHWVRQAPGKGLEWVALIWYDGSHKFYADSVQGRFTISRDNSKNTLFLQMNSLRAEDTAIYYCAKVISYGSVNYYNNYKYTMDVWGQGTTVTVSS
VL: not shown
modifications: peptides N-terminally acetylated and C-terminally amidated
B6: CL-437862 (antibody, V domains shown)
VH: QVQLVESGGGVVQPGRSLRLSCAASGFTFSNSGMHWVRQVPGKGLEWVAIIWYDGGNKYYADSVKGRFTISRDNSKNTLYLQMNSLRAEDTAVYYCARAYYDILTSYDKDCCYGMDVWGQGTTVTVSS
VL: not shown
modifications: peptides N-terminally acetylated and C-terminally amidated
B7: CL-510469 (antibody, V domains shown)
VH: QVQLVESGGGVVQPGRSLRLSCAASGFTFSSYGMHWVRQAPGKGLEWVAVIWYDGSNQFYTDSVKGRFTISRDNSKNTLYLHMNSLRVEDTAIYYCARDGDYSSSAGDFDYWGQGTLVTVSS
VL: not shown
modifications: peptides N-terminally acetylated and C-terminally amidated
B8: CL-512564 (antibody, V domains shown)
VH: QVQLVESGGGVVQPGRSLRLSCAASGFTFSNSGMHWVRQAPGKGLEWVAIIWYDGSHKFYADSVKGRFTISRDNSKNTLYLQMNSLRIEDTAMYYCVRSYNWNYPVRGDYKYGMDVWGQGTTVTVSS
VL: DIQMTQSPSTLSASVGDRVTITCRASQSISSWLAWFQQKPGKAPNLLIYMASSLQSGVPSRFSGSGSGTEFTLTISSLQPDDFATYYCQQFNTYWTFGQGTKVEIK
modifications: peptides N-terminally acetylated and C-terminally amidated
B9: CL-531969 (antibody, V domains shown)
VH: QVQLVESGGGVVQPGRSLRLSCAASGFTFSSSGMHWVRQAPGMGLEWVAIIWYDGSNKFYADSVKGRFTISRDNSKNTLYLQMNSLRAEDTAVYYCARAYVSGNYGDNYGMDVWGQGTTVTVSS
VL: B8 VL with N45K, M50K, Q55E, S76N, Y87F, F91Y, T93Y
modifications: peptides N-terminally acetylated and C-terminally amidated
B10: CL-459404 (antibody, V domains shown)
VH: QVQLVASGGGVVQPGRSLRLSCAASGFTFSNYGMHWVRQAPGKGLEWVAIIWYDGSKKYYSDSVKGRFTISRDNSKNTLNLQMNSLRAEDTAVYYCARAYGSGSYSDDYYGMDVWGQGTTVTVSS
VL: B8 VL with S31P, N45K, M50K, S53N, Q55E, F91Y, N92Y
modifications: peptides N-terminally acetylated and C-terminally amidated
B11: CL-531912 (antibody, V domains shown)
VH: B9 VH with Q1L, M43K, N104S, Y105H, N108K
VL: B8 VL with N45K, M50K, Q55E, S76N, Y87F, F91Y, T93N
modifications: peptides N-terminally acetylated and C-terminally amidated
B12: CL-513462 (antibody, V domains shown)
VH: QVQLVESGGGVVQPGRSLRVSCAASGFTFSNYGMYWVRQAPGKGLEWVAVIWHDGTNKFYEDSVKGRFTISRDNSKNTLYLQMNSLRAEDTAVYYCARAGYFQGSGSFLDYWGQGTLVTVSS
VL: B8 VL with F36Y, N45K, M50K, Q55E, Y87F, F91Y, N92S, T93S
modifications: peptides N-terminally acetylated and C-terminally amidated
B13: CL-510640 (antibody, V domains shown)
VH: QVQLVESGGGVVQPGRSLRLSCAASGFTFSNYGMHWVRQAPVKGLEWVAIIWYDGSNKFYADSVRGRFIISRDNSKNTLYLQMNSLRAEDTAVYFCARAREGQNSDYYGSETSYTFDSWGLGTLVTVSS
VL: B8 VL with F36Y, N45K, L46F, M50K, Q55E, F91Y, N92K, T93S
modifications: peptides N-terminally acetylated and C-terminally amidated
B14: CL-512761 (antibody, V domains shown)
VH: QVQLVESGGGVVQPGTSLRLSCAASGFTFSNYGMHWVRQAPGKGLEWVSITWYDESNKFYADSVKGRFTISRDNSKNTLYLQMNSLRAEDTAVYYCARAYDTLTGYRAQKYGMDVWGQGTTVTVSS
VL: B8 VL with S28R, S31T, F36Y, N45K, Y49N, M50E, S53R, Q55E, F91Y, T93S
modifications: peptides N-terminally acetylated and C-terminally amidated
B15: CL-532061 (antibody, V domains shown)
VH: QVQLVESGGGVVQPGRSLRLSCVASRFTFSNYGMHWVRQTPGKGLEWVAIIWYDGSNKFYGDSVKGRFTISRDNSRNTLYLQMNNLRAEDTAVYYCARAYDDFVDHDKYGMDVWGQGTTVTVSS
VL: B8 VL with T22S, S31I, F36Y, P40S, N45K, M50K, S53R, Q55E, F91Y, T93S
modifications: peptides N-terminally acetylated and C-terminally amidated
B16: CL-512296 (antibody, V domains shown)
VH: QVQLVESGGGVVQPGRSLRLSCAASGFTFSNYGMHWVRQAPGKGLEWVAVIWYDGSKKFYADSVMGRFTISRDNSKNTLVLQMNSLGAEDTAVYYCARDRGYSGYVFDYWGQGTLVTVSS
VL: QSALTQPASVSGSPGQSIAISCTGTSSDVGGYNFVSWYRHHPGKAPKLMIYDVSNRPSGVSNRFSGSKSGNTASLTISGLQAEDEADYYCCSYAGSCSVFGGGTKLTVL
modifications: peptides N-terminally acetylated and C-terminally amidated
B17: CL-513808 (antibody, V domains shown)
VH: QVQLVESGGGVVQPGRSLRLSCAASGFTFSNYGMHWVRQAPGKGLEWVAIIWYDGSNKFYADSVKGRFTISRDNSKNTLYLQMNSLRAEDTAVYYCARDDRGHSYGPYFDFWGQGTLVTVSS
VL: EIVMTQSPATLSVSPGERATLSCRASQSVSSNLAWYQQKPGQAPRLLIYGASIRATGIPARFSGSGSGTEFTLTISILQSEDFAVYYCQQCNNWPWTFGQGTKVEIK
modifications: peptides N-terminally acetylated and C-terminally amidated
B18: CL-513701 (antibody, V domains shown)
VH: QVQLVESGGGVVQTGRSLRLSCTASGFIFSNYGMYWVRQAPGKGLEWVALIWYDGSNKYYVDSVKGRFTISRDNSKNTLYLQMNSLRAEDTAVYYCARAGKYSGSGSYLDSWGQGTLVTVSS
VL: DIQMTQSPSSVSASVGDRVTITCRASQGISSWLAWYQQKPGKAPKLLIYTASSLQSGVPSRFSGSGSGTDFTLTISSLQPDDFATYFCQQYSRYWTFGQGTKVEIK
modifications: peptides N-terminally acetylated and C-terminally amidated
B19: CL-510596 (antibody, V domains shown)
VH: QVQLEESGGGVVQPGRSLRLSCTATGFTFSNYGMHWVRQAPGKGLEWVAVIWYDGSNKYYVDSVKGRFTISRDNSKNTLYLQMNSLRAEDTAVYYCARDGGYYGSGSYWWFDSWGQGTLVTVSS
VL: not shown
modifications: peptides N-terminally acetylated and C-terminally amidated
B20: CL-511771 (antibody, V domains shown)
VH: QVQLVESGGGVVQPGRSLRLSCAASGFTFSNSGMHWVRQAPGKGLEWVAIIWYDGSNKYYAESMKGRFTISRDNSKNTLYLQMNSLRAEDTAVYYCARDGTTNAFDLWGQGTMVTVSP
VL: not shown
modifications: peptides N-terminally acetylated and C-terminally amidated
B21: CL-512469 (antibody, V domains shown)
VH: QMQLVESGGGVVQPGRSLTLSCEASGFTFSNYGMHWVRQAPGKGLEWVAIIWFDGSHRFYADAVEGRFTISRDNSKNTLFLQMTSLRAEDAAVYYCARVGQFSSSSWGAFDIWGQGTVVTVSS
VL: EIVLTQSPGTLSLSPGESVTLSCRASQIISNTHLAWYQQKPGQAPSLLIYGASSRATGIPDRFSGSGSGTDFTLTISRLEPEDFAVYYCQQYGRLWTFGQGTKVEIK
modifications: peptides N-terminally acetylated and C-terminally amidated
B22: CL-445635 (antibody, V domains shown)
VH: QVQLVESGGAVVQPGTSLRLSCAASGFTFSNYGMHWVRQAPGKGLQWVALIWYNGNNKFYAESVEGRFIISRDNSKNILFLQMNSLSAEDTAVYYCARAFYYDSGNYLDYWGPGSLVTVSS
VL: DIQMTQSPSSVSASVGDRVTITCRARQDISSRLAWYQQKPGKAPKILIYGASSLQSGVPSRFSASGSGTDFTLTISSLQPEDFATYYCQQANSFPWTFGQGTKVEIK
modifications: peptides N-terminally acetylated and C-terminally amidated
B23: CL-531237 (antibody, V domains shown)
VH: QVQLVESGGGVVQPGTSLRLSCVASGFTFSNFGIHWFRQAPGKGLEWVSLIWYDGKNKFYAESVTGRFTISRDNSKNTVYLQMSSLRAEDTAVYYCARSYYYDSGNYFDYWGQGTLVTVSS
VL: B22 VL with V19I, R26S, D28G, Y36F, K45N, I46F, A51T, A64G, F83S, F94Y
modifications: peptides N-terminally acetylated and C-terminally amidated
B24: CL-444639 (antibody, V domains shown)
VH: QVQLVESGGGVVQPARSLRLSCAASGFTFSSYGMHWVRQAPGKGLEWVAVIWYDGSNKYYADSVKGRFTISRDNSKNTLYLQMNSLRAEDTAVYYCAKVGDFYGSGSYPHYYGMDVWGQGTTVTVSS
VL: not shown
modifications: peptides N-terminally acetylated and C-terminally amidated
B25: CL-510499 (antibody, V domains shown)
VH: QVQLVESGGGLVQPGRSLTLSCAASGFTFSNYGMHWVRQTPGKGLEWVALIRYDGSYKFYADSVKGRFTISRDNSKNTLYLQMNSLRAEDTAIYFCARDGDYSNSAGDFDYWGQGTLVTVSS
VL: EIVLTQSPGTLSLSPGERATLSCRASQSVSSTNLAWYQQKPGQAPRLLIYGVSSRATGIPDRFSGSGSGTDFTLTINRLEPEDFAVYYCQQHGRSFTFGPGTKVEIK
modifications: peptides N-terminally acetylated and C-terminally amidated

Target: PfCSP full length (Plasmodium falciparum (isolate NF54), UniProt P19597)
Experiment: ELISA AUC

Chain of PfCSP full length (P19597 20-375): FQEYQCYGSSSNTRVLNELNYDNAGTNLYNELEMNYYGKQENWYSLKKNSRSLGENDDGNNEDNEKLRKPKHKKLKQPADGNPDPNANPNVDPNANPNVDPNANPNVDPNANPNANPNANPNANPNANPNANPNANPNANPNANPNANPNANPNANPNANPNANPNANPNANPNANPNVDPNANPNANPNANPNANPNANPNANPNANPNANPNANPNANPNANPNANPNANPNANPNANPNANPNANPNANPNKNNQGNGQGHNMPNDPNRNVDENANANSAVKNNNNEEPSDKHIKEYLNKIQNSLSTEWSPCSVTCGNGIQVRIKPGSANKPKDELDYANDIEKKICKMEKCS

Row | Binder | binding score
1 | B1 | 2.09
2 | B2 | 2.12
3 | B3 | 2.6
4 | B4 | 2.13
5 | B5 | 2.55
6 | B6 | 2.4
7 | B7 | 2.16
8 | B8 | 2.14
9 | B9 | 2.5
10 | B10 | 2.4
11 | B11 | 2.64
12 | B12 | 2.47
13 | B13 | 2.16
14 | B14 | 2.17
15 | B15 | 2.47
16 | B16 | 1.86
17 | B17 | 2.17
18 | B18 | 2.54
19 | B19 | 1.64
20 | B20 | 2.64
21 | B21 | 1.99
22 | B22 | 2.4
23 | B23 | 2.18
24 | B24 | 2.4
25 | B25 | 2.06
